{"source": "paper PMC8880779", "key": {"[1]": {"target": "Human Aβ(1–42)-HiLyte™-Fluor555 (human) (UniProt P05067)", "assay": "other fluorescence titration; kinetics of the fluorescence increase of 10 nM Aβ(1–42) HiLyte Fluor555 after addition of 10 nM CaM (1:1 molar ratio); 50 mM Hepes, 100 mM KCl, 50 µM CaCl2, pH 7.05; 24–25 °C"}, "[2]": {"target": "Human Aβ(1–42)-HiLyte™-Fluor555 (human) (UniProt P05067)", "assay": "other fluorescence titration; reversion of the fluorescence increase: 100 nM non-labelled Aβ(1–42) added after complex formation of 10 nM Aβ(1–42) HiLyte Fluor555 with 5 nM CaM; same buffer, 24–25 °C"}, "[3]": {"target": "Human Aβ(1–42)-HiLyte™-Fluor555 (human) (UniProt P05067)", "assay": "other fluorescence titration; kinetics of the fluorescence increase of 10 nM Aβ(1–42) HiLyte Fluor555 after addition of 5 nM CaM (series 2.5, 5, 10 nM for the maximum change); 50 mM Hepes, 100 mM KCl, 50 µM CaCl2, pH 7.05; 24–25 °C; excitation 520 nm, emission 567 nm"}}, "data": [{"substance": "calmodulin (CaM) (from UniProt P62157 1-149) (natural protein; other documents disagree on this pair)", "values": [{"measurement": "half-time of complex formation (10 nM CaM)", "setting": "[1]", "value": 38, "unit": "s"}, {"measurement": "rate constant of the kinetic process of complex formation (10 nM CaM)", "setting": "[1]", "value": 0.018, "unit": "s⁻¹"}, {"measurement": "time needed for the decay to half the increase of fluorescence", "setting": "[2]", "value": 900, "unit": "s"}, {"measurement": "stoichiometry N (Aβ(1–42) per CaM)", "setting": "[3]", "value": 2}]}]}
